Test results from patent publication US20140349341.

What was measured:
[1] = tested on: Mgat1 ZFN right monomer (CompoZr, FokI fusion) (synthetic construct); assay: cell_activity; details: Cel-I assay day 3 in CHO cells (9.6% day 10); value is for ZFN pair; spacer ccagca
[2] = tested on: Mgat1 ZFN left monomer (CompoZr, FokI fusion) (synthetic construct); assay: cell_activity; details: Cel-I assay day 3 in CHO cells (9.6% day 10); value is for ZFN pair; spacer ccagca

Sequence	activity [1] [%]	activity [2] [%]
GCTGTGGTAGTGGAGGAC (double strand) [CHO Mgat1 ZFN right half-site]	8.8	
AACAAGTTCAAGTTC (double strand) [CHO Mgat1 ZFN left half-site]		8.8
